These results are taken from patent US20230088277A1 (SHANGHAI SYNVIDA BIOTECHNOLOGY, published 2023).

The labels stand for the following.
T1: 6×His tag human Pear1 extracellular segment (Leu-21-Ser; 754) (human, UniProt Q5VY43 21-754)
T1 construct: range 21-754; The ELISA and the Biacore test only say 'human Pear1 ECD protein' / 'extracellular segment'; also called human Pear1 ECD protein; human Pear1ECD protein; not shown: 6×His tag
T1 sequence (looked up): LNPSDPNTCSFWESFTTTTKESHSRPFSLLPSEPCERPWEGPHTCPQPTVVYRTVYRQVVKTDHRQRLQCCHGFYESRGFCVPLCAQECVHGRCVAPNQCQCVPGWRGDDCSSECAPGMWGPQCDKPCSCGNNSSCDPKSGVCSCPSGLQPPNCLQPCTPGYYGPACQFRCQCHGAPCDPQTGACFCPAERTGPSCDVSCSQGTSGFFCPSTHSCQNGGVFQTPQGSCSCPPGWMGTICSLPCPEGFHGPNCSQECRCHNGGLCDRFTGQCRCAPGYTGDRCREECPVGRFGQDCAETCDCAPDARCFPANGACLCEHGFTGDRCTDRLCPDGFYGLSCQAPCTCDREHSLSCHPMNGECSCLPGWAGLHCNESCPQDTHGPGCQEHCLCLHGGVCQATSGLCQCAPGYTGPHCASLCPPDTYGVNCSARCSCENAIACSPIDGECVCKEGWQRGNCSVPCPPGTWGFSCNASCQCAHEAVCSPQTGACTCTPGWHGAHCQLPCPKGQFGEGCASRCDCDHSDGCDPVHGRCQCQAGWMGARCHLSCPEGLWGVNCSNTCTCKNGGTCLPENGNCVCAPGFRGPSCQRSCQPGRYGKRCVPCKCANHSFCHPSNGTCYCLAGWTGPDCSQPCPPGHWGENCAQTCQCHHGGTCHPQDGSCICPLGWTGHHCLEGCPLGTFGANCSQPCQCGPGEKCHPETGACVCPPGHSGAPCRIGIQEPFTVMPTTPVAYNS

B1: hLF109 (antibody, V domains shown)
VH: QVQLVQSGAEVKKPGASVKVSCKASGYTFTGYPMNWVRQAPGQNLEWMGVINPYNGGTSYNQKFKGRVTLTVDKSASTAYMELSSLRSEDTAVYYCARGGVRPFAYWGQGTLVTVSS
VL: DIQMTQSPSSLSASVGDRVTITCKASEDIYNRLAWYQQKPGKAPKLLISGATSLETGVPSRFSGSGSGNDFTLTISSLQPEDFATYYCQQYWSTPTFGQGTKLEIK
notes: Humanized antibody
B2: hLF113 (antibody, V domains shown)
VH: QVQLVQSGAEVKKPGASVKVSCKASGYTFTGYPMNWVRQAPGKNLEWMGVINPYNGGTSYNQKFKGRATLTVDKSASTAYMELSSLRSEDTAVYYCARGGVRPFAYWGQGTLVTVSS
VL: DIQMTQSPSSLSASVGDRVTITCKASEDIYNRLAWYQQKPGKAPKLLISGATSLETGVPSRFSGSGSGNDFTLTISSLQPEDFATYYCQQYWSTPTFGQGTKLEIK
notes: Humanized antibody
B3: hLF104 (antibody, V domains shown)
VH: QVQLVQSGAEVKKPGASVKVSCKASGYTFTGYPMNWVRQAPGQNLEWMGVINPYNGGTSYNQKFKGRVTLTRDKSASTAYMELSSLRSEDTAVYYCARGGVRPFAYWGQGTLVTVSS
VL: DIQMTQSPSSLSASVGDRVTITCKASEDIYNRLAWYQQKPGNAPKLLISGATSLETGVPSRFSGSGSGNDYTLTISSLQPEDFATYYCQQYWSTPTFGQGTKLEIK
notes: Humanized antibody
B4: hLF108 (antibody, V domains shown)
VH: QVQLVQSGAEVKKPGASVKVSCKASGYTFTGYPMNWVRQAPGKRLEWMGVINPYNGGTSYNQKFKGRATLTVDTSASTAYMELSSLRSEDTAVYYCARGGVRPFAYWGQGTLVTVSS
VL: DIQMTQSPSSLSASVGDRVTITCKASEDIYNRLAWYQQKPGNAPKLLISGATSLETGVPSRFSGSGSGNDYTLTISSLQPEDFATYYCQQYWSTPTFGQGTKLEIK
notes: Humanized antibody
B5: hLF103 (antibody, V domains shown)
VH: QVQLVQSGAEVKKPGASVKVSCKASGYTFTGYPMNWVRQAPGQNLEWMGVINPYNGGTSYNQKFKGRVTLTRDKSASTAYMELSSLRSEDTAVYYCARGGVRPFAYWGQGTLVTVSS
VL: DIQMTQSPSSLSASVGDRVTITCKASEDIYNRLAWYQQKPGKAPKLLISGATSLETGVPSRFSGSGSGNDYTLTISSLQPEDFATYYCQQYWSTPTFGQGTKLEIK
notes: Humanized antibody
B6: hLF105 (antibody, V domains shown)
VH: QVQLVQSGAEVKKPGASVKVSCKASGYTFTGYPMNWVRQAPGKRLEWMGVINPYNGGTSYNQKFKGRATLTVDTSASTAYMELSSLRSEDTAVYYCARGGVRPFAYWGQGTLVTVSS
VL: DIQMTQSPSSLSASVGDRVTITCKASEDIYNRLAWYQQKPGKAPKLLISGATSLETGVPSRFSGSGSGNDFTLTISSLQPEDFATYYCQQYWSTPTFGQGTKLEIK
notes: Humanized antibody
B7: hLF112 (antibody, V domains shown)
VH: QVQLVQSGAEVKKPGASVKVSCKASGYTFTGYPMNWVRQAPGQNLEWMGVINPYNGGTSYNQKFKGRVTLTVDKSASTAYMELSSLRSEDTAVYYCARGGVRPFAYWGQGTLVTVSS
VL: DIQMTQSPSSLSASVGDRVTITCKASEDIYNRLAWYQQKPGNAPKLLISGATSLETGVPSRFSGSGSGNDYTLTISSLQPEDFATYYCQQYWSTPTFGQGTKLEIK
notes: Humanized antibody
B8: hLF107 (antibody, V domains shown)
VH: QVQLVQSGAEVKKPGASVKVSCKASGYTFTGYPMNWVRQAPGKRLEWMGVINPYNGGTSYNQKFKGRATLTVDTSASTAYMELSSLRSEDTAVYYCARGGVRPFAYWGQGTLVTVSS
VL: DIQMTQSPSSLSASVGDRVTITCKASEDIYNRLAWYQQKPGKAPKLLISGATSLETGVPSRFSGSGSGNDYTLTISSLQPEDFATYYCQQYWSTPTFGQGTKLEIK
notes: Humanized antibody
B9: hLF114 (antibody, V domains shown)
VH: QVQLVQSGAEVKKPGASVKVSCKASGYTFTGYPMNWVRQAPGKNLEWMGVINPYNGGTSYNQKFKGRATLTVDKSASTAYMELSSLRSEDTAVYYCARGGVRPFAYWGQGTLVTVSS
VL: DIQMTQSPSSLSASVGDRVTITCKASEDIYNRLAWYQQKPGNAPKLLISGATSLETGVPSRFSGSGSGNDFTLTISSLQPEDFATYYCQQYWSTPTFGQGTKLEIK
notes: Humanized antibody
B10: hLF101 (antibody, V domains shown)
VH: QVQLVQSGAEVKKPGASVKVSCKASGYTFTGYPMNWVRQAPGQNLEWMGVINPYNGGTSYNQKFKGRVTLTRDKSASTAYMELSSLRSEDTAVYYCARGGVRPFAYWGQGTLVTVSS
VL: DIQMTQSPSSLSASVGDRVTITCKASEDIYNRLAWYQQKPGKAPKLLISGATSLETGVPSRFSGSGSGNDFTLTISSLQPEDFATYYCQQYWSTPTFGQGTKLEIK
notes: Humanized antibody (CDR grafting with back mutations)
B11: hLF110 (antibody, V domains shown)
VH: QVQLVQSGAEVKKPGASVKVSCKASGYTFTGYPMNWVRQAPGQNLEWMGVINPYNGGTSYNQKFKGRVTLTVDKSASTAYMELSSLRSEDTAVYYCARGGVRPFAYWGQGTLVTVSS
VL: DIQMTQSPSSLSASVGDRVTITCKASEDIYNRLAWYQQKPGNAPKLLISGATSLETGVPSRFSGSGSGNDFTLTISSLQPEDFATYYCQQYWSTPTFGQGTKLEIK
notes: Humanized antibody; also called hLFHO
B12: hLF115 (antibody, V domains shown)
VH: QVQLVQSGAEVKKPGASVKVSCKASGYTFTGYPMNWVRQAPGKNLEWMGVINPYNGGTSYNQKFKGRATLTVDKSASTAYMELSSLRSEDTAVYYCARGGVRPFAYWGQGTLVTVSS
VL: DIQMTQSPSSLSASVGDRVTITCKASEDIYNRLAWYQQKPGKAPKLLISGATSLETGVPSRFSGSGSGNDYTLTISSLQPEDFATYYCQQYWSTPTFGQGTKLEIK
notes: Humanized antibody
B13: hLF102 (antibody, V domains shown)
VH: QVQLVQSGAEVKKPGASVKVSCKASGYTFTGYPMNWVRQAPGQNLEWMGVINPYNGGTSYNQKFKGRVTLTRDKSASTAYMELSSLRSEDTAVYYCARGGVRPFAYWGQGTLVTVSS
VL: DIQMTQSPSSLSASVGDRVTITCKASEDIYNRLAWYQQKPGNAPKLLISGATSLETGVPSRFSGSGSGNDFTLTISSLQPEDFATYYCQQYWSTPTFGQGTKLEIK
notes: Humanized antibody
B14: hLF111 (antibody, V domains shown)
VH: QVQLVQSGAEVKKPGASVKVSCKASGYTFTGYPMNWVRQAPGQNLEWMGVINPYNGGTSYNQKFKGRVTLTVDKSASTAYMELSSLRSEDTAVYYCARGGVRPFAYWGQGTLVTVSS
VL: DIQMTQSPSSLSASVGDRVTITCKASEDIYNRLAWYQQKPGKAPKLLISGATSLETGVPSRFSGSGSGNDYTLTISSLQPEDFATYYCQQYWSTPTFGQGTKLEIK
notes: Humanized antibody
B15: hLF106 (antibody, V domains shown)
VH: QVQLVQSGAEVKKPGASVKVSCKASGYTFTGYPMNWVRQAPGKRLEWMGVINPYNGGTSYNQKFKGRATLTVDTSASTAYMELSSLRSEDTAVYYCARGGVRPFAYWGQGTLVTVSS
VL: DIQMTQSPSSLSASVGDRVTITCKASEDIYNRLAWYQQKPGNAPKLLISGATSLETGVPSRFSGSGSGNDFTLTISSLQPEDFATYYCQQYWSTPTFGQGTKLEIK
notes: Humanized antibody

For this assay, the target named is T1, 6×His tag human Pear1 extracellular …. Nature of the assay: SPR (Biacore); antibody as ligand, Pear1 extracellular segment.
In general, Kd refers to the free concentration of one partner at which half of the binding sites on the other are occupied at equilibrium, for simple one-to-one binding. As usually defined, the koff is the first-order rate constant of dissociation. As a reminder, the kon is the second-order rate constant of association. Low values mean slow association, high ones fast association. Consider B1, for which the Kd came out at 6.14 nM, the koff was 0.000249 s⁻¹, the kon came out at 40500 M⁻¹ s⁻¹ and the t1/2 amounted to 46.4 min.
In the same order, the values of B2 are 4.28 nM, 0.000201 s⁻¹, 47000 M⁻¹ s⁻¹ and 57.4 min.
On to B3, for which the affinity, expressed as Kd, was 13.3 nM; the dissociation rate constant (koff) stood at 0.000506 s⁻¹; the kon was determined as 38000 M⁻¹ s⁻¹; the t1/2 is 22.8 min.
The matching figures for B4: 5.98 nM, 0.000307 s⁻¹, 51300 M⁻¹ s⁻¹ and 37.7 min.
The matching figures for B5: 19 nM, 0.000532 s⁻¹, 28000 M⁻¹ s⁻¹ and 21.7 min.
The molecule B6 registered a Kd of 3.82 nM, a koff of 0.000176 s⁻¹, a kon of 46200 M⁻¹ s⁻¹ and a t1/2 of 65.6 min.
The matching figures for B7: 4.99 nM, 0.000237 s⁻¹, 47500 M⁻¹ s⁻¹ and 48.7 min.
In turn, B8 came in with a Kd of 6.74 nM, a koff of 0.000345 s⁻¹, a kon of 51200 M⁻¹ s⁻¹ and a t1/2 of 33.5 min.
On to B9, for which the Kd worked out at 5.09 nM, the koff came to 0.000232 s⁻¹, the kon was 45600 M⁻¹ s⁻¹ and the t1/2 stood at 49.8 min.
For B10, binding was put at a Kd of 7.67 nM, the koff came to 0.000393 s⁻¹, the kon is 51200 M⁻¹ s⁻¹ and the t1/2 came out at 29.4 min.
The matching figures for B11: 5.42 nM, 0.000236 s⁻¹, 43500 M⁻¹ s⁻¹ and 49 min.
In the same order, the values of B12 are 5.31 nM, 0.000235 s⁻¹, 44200 M⁻¹ s⁻¹ and 49.2 min.
B13 displayed a Kd of 7.87 nM, a koff of 0.000395 s⁻¹, a kon of 50200 M⁻¹ s⁻¹ and a t1/2 of 29.2 min.
Turning to B14, binding was put at a Kd of 6.87 nM, the koff came to 0.000271 s⁻¹, the kon is 39500 M⁻¹ s⁻¹ and the t1/2 worked out at 42.6 min.
In the same order, the values of B15 are 5.8 nM, 0.000233 s⁻¹, 40100 M⁻¹ s⁻¹ and 49.7 min.
